Test results published in US20230192845A1 (BLINK BIOMEDICAL, published 2023).

B1: BL006-2-19G13-19K15 (antibody, V domains shown)
VH: QVQLQQPGSELVRPGASVKLSCKASGYKFTSYWMHWVKQRPGQGLEWIGSIYPGSGSTNYDEKFKRKATLTVDTFSSTASMQLSSLTSEDSAVYYCTREMAYWGQGTLVTVSA
VL: DIVITQDELSNPVTSGESVSISCRSSKSLLYKDGKTYLNWFLQRPGQSPQLLVYWMSTRASGVSDRFSGSGSGTDFTLEISRVKAEDVGVYYCQQVVEYPFTFGTGTKLGIK
notes: Recombinant mIgG2a/kappa (also made as mIgG2a-D265A); also called candidate NO 9
B2: hTIGIT-Myc tagged protein transiently expressed on CHO cells (receptor, human, UniProt Q495A1 22-244, looked up)
chain: MMTGTIETTGNISAEKGGSIILQCHLSSTTAQVTQVNWEQQDQLLAICNADLGWHISPSFKDRVAPGPGLGLTLQSLTVNDTGEYFCIYHTYPDGTYTGRIFLEVLESSVAEHGARFQIPLLGAMAATLVVICTAVIVVVALTRKKKALRIHSVEGDLRRKSAGQEEWSPSAPSPPGSCVQAEAAPAGLCGEQRGEDCAELHDYFNVLSYRSLGNCSFFTETG
notes: whole, on cells

Columns and labels:
[1] = target: T1, mouse CD96 expressed on CHO cells (mouse, UniProt Q3U0X8 22-602); test: FCM on CHO cells expressing mouse CD96
T1 construct: whole, on cells; also called mCD96
T1 sequence (looked up): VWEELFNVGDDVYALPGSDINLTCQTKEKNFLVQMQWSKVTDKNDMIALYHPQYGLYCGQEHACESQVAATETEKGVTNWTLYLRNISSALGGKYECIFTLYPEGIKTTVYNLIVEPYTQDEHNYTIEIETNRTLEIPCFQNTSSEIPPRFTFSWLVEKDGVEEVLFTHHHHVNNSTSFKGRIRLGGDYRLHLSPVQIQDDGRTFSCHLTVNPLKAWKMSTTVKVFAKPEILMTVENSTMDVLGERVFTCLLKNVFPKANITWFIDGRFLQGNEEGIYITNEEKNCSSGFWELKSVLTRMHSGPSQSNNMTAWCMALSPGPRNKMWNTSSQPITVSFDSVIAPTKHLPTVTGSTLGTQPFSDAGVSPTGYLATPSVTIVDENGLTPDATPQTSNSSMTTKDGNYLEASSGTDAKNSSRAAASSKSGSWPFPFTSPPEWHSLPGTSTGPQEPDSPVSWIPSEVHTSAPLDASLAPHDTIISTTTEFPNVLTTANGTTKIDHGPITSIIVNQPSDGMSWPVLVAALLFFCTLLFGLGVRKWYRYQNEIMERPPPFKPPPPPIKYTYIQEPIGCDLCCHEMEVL
Procedure, shortened: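 Flow cytometry on non-fixed CHO transfectants; mouse CD96 surface expression verified with clone 6A6. Mouse anti-CD96 antibodies or isotype controls applied at 10 or 1 μg/mL, 30 min at +4 °C.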

[2] = target: T2, human CD96 long isoform v1 transiently expressed on CHO cells (human, UniProt P40200 22-585); test: FCM on hCD96v1-CHO cells, 10 µg/ml
T2 construct: also called hCD96v1; CD96v1
T2 sequence: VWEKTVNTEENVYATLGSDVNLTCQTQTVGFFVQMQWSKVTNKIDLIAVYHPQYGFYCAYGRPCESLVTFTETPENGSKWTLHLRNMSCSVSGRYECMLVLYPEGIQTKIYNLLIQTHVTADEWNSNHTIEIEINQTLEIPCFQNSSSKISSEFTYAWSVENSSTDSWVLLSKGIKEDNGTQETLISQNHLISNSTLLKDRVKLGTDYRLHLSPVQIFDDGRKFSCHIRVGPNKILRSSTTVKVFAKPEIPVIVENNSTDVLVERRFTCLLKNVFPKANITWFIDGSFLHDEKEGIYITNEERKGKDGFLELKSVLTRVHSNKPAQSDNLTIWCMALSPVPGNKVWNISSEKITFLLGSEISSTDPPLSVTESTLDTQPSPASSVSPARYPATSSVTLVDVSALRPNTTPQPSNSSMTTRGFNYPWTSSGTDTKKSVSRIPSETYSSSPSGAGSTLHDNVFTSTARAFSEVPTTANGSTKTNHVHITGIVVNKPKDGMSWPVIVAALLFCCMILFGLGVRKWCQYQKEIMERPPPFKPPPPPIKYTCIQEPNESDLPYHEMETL

[3] = target: T3, human CD96 short isoform v2 expressed on CHO cells (human, UniProt P40200 22-585); test: flow cytometry, indirect staining of transiently transfected CHO-S cells; median % of stained cells, 3-4 experiments
T3 construct: also called hCD96v2; CD96v2; not shown: C-terminal HA-tag
T3 sequence: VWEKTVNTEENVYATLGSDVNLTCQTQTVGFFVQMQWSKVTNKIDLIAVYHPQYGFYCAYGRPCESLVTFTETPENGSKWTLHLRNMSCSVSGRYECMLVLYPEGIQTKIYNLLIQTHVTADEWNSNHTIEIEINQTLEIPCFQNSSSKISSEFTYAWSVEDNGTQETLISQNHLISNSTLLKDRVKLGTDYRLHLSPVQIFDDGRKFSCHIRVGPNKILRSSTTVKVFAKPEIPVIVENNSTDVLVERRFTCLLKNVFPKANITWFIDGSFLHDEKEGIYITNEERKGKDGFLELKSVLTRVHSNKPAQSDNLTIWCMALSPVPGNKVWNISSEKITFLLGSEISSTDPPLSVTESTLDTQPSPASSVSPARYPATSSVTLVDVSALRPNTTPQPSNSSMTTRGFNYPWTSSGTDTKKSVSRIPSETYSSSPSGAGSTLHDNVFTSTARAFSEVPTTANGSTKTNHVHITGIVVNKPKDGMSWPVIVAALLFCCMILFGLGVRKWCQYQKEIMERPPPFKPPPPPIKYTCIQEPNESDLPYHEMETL
Text: Expression plasmids containing either the complete sequence of hCD96v2 or different extracellular domains (D1 to D3) of hCD96v2 or combinations thereof (D1D2, D1D3 or D2D3) were transiently transfected in CHO-S cells. Each transient transfect was indirectly stained with the different anti-CD96 candidates and analyzed by flow cytometry. Represented is the median % of stained CHO-S transfect obtained from 3 to 4 independent experiments for each anti-CD96 tested.
Expression vectors coding for truncated extracellular domains of hCD96v2 (short isoform v2) were constructed to map, within the 3 described immunoglobulin domains of hCD96v2, the epitopes recognized by the anti-hCD96 candidates. All expression vectors constructed contained the signal peptide, the D4 domain, the transmembrane, the intracellular chain of […] plus a HA-Tag to monitor transfection efficiency of the various constructs. The expression vectors contained only D1, D2, D3 or combinations of those 3 domains (D1D2, D1D3, D2D3). The anti-hCD96 antibodies were tested by FCM for their capacity to recognize the truncated CD96 proteins transiently expressed on CHO-S cells.

[4] = target: T4, rhesus CD96 transiently expressed on CHO cells (rhesus, UniProt P40200 22-585 (human entry)); test: flow cytometry on CHO cells transiently expressing rhesus CD96; antibody at 1 (thin line) and 10 µg/ml (thick dashed line), filled grey = isotype control
T4 construct: also called rhesus CD96, short isoform
T4 chain: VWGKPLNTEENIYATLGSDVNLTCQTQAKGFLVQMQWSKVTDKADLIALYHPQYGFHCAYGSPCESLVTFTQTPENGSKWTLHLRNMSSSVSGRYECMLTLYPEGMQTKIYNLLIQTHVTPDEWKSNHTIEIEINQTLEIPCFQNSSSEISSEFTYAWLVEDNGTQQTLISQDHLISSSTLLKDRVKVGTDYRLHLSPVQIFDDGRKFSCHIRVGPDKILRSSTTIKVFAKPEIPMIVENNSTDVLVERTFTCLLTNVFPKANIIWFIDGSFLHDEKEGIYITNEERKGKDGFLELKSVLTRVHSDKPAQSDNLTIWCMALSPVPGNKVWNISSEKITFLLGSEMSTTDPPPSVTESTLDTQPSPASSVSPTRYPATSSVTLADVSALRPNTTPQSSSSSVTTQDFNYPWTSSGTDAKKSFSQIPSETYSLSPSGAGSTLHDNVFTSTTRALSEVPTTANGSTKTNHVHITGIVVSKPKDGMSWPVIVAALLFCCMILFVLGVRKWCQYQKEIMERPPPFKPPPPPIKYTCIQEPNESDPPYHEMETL
Procedure, shortened: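 Non-fixed CHO cells transiently transfected with rhesus CD96 were incubated with mouse anti-CD96 antibodies or isotype controls at 1 or 10 µg/mL for 30 min at 4 °C. Binding was read as fluorescence intensity by flow cytometry.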

[5] = target: T5, hCD226-His tagged protein transiently expressed on CHO cells (human, UniProt Q15762 19-336); test: FRET by flow cytometry on transfected CHO cells
T5 construct: whole, on cells; also called DNAM-1
T5 sequence (looked up): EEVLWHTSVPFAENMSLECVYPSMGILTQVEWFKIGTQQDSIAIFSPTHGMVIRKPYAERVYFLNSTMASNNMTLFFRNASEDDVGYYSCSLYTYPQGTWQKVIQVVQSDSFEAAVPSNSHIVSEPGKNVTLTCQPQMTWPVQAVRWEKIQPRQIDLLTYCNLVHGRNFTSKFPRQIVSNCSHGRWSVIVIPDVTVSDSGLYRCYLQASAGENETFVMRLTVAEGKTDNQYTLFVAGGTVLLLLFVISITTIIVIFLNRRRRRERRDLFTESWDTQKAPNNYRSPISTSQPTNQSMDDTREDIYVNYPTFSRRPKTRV

| Binder | binding result [1] | binding result [2] | binding result [3] | binding result [4] | binding result [5] |
| --- | --- | --- | --- | --- | --- |
| B1 | no binding (tested: 1 and 10 µg/mL) | binds | binds | binds |  |
| B2 |  |  |  |  | binds |
